Target: the molecule itself
Assay: single particle fluorescence intensity (stoichiometry) analysis of confocal images; same bilayer and images as a1; event intensity normalised by the monomer brightness measured by FCS and binned into putative monomers, dimers, etc.

B1: Bax 47C labelled with HyLite488 (Bax-HyLite488) (natural protein, human, UniProt Q07812 1-192, looked up)
chain: MDGSGEQPRGGGPTSSEQIMKTGALLLQGFIQDRAGRMGGEAPELACDPVPQDASTKKLSEALKRIGDELDSNMELQRMIAAVDTDSPREVFFRVAADMFSDGNFNWGRVVALFYFASKLVLKALATKVPELIRTIMGWTLDFLRERLLGWIQDQGGWDGLLSYFGTPTWQTVTIFVAGVLTASLTIWKKMG
modifications: HyLite488 bound by maleimide chemistry to the cysteine at position 47
notes: full-length human Bax; the two endogenous cysteines (62 and 126) are replaced with alanine, and leucine 47 is changed to cysteine; Labelling efficiency 81%; also called Bax-HiLyte488
binding result: binds
